Our source for the protein production values is a protein production outcome set (Wang et al. 2014).

A short description of the data set: label from the status in PepcDB records.
Take “MKWIEIYEKLVNIDTGPDLPLEGKLRRTSFLTEILEDLGFRVEKREAAYVAFRGKPPYVTLIGHLDTVFPEGESKRRPFTIEGNIAKGPGVCDMKGGVVILLESLKRFLQQNDTDLCVVLNVDEELGSPLSGEVFKEVAGMSSHCLSFEPGRENGELISSRKGIISLWLFARGKKGHASRLDEGANAIVELAFKVVELTSLNGRFPNLTLNPTIVKGGAESNVTPDKAEVYFDVRYYDDKEYEFLEETLKRLSAVHPEANVSYTLKLRRLPMKEDPDFVNIVKMSAEEIGMTVSFVRATGGGDVAFFSQNGVPSIDGLGIPGGKMHSEDEYARLDQFEDRVNLVVHLLRKLGGEKNVR”: the protein production entry is recorded as “not failed”.

Take “MFKKLLHSLFAGLTFMAAVAAVPAHAQEADAQTTVKTAVDDVLATIKGDSDLRSGNMQKVFQLVDQKIVPRADFKRTTQIAMGRFWSQATPEQQQQIQDGFKTLLVRTYAGALANVRNQTVSYKPFRAAADDTDVVVRSTVNNNGEPVALDYRMEKSANGWKVYDINISGLWLSETYKNQFAEVISKRGGVSGLVQFLDERNAQLAKGPAKLEHHHHHH”: the protein production result is “not failed”.

For the sequence “MKMMDANEIISFIQNSTKSTPVKVYVKGELEGINFGESAKAFINGNTGVVFGEWSEIQTAIEENQSKIEDYVVENDRRNSAIPMLDLKNIKARIEPGAIIRDQVEIGDNAVIMMGASINIGSVIGEGTMIDMNVVLGGRATVGKNCHIGAGSVLAGVIEPPSAKPVVIEDDVVIGANAVVLEGVTVGKGPVVAAGAIVVNDVEPYTVVAGTPAKKIKDIDEKTKGKTEIKQELRQL”, the protein production result is given as “not failed”.

For the sequence “MVCFASLFEEVSMHTCPLCHNQHTRHYFEDKHREYLQCEQCYLVFVNPDQRLDAETEKAHYDLHENNPEDIGYRRFLSRIADPITERISPQSNGIDFGCGPGPTLSLMLEEAGHNMALYDIYYHPDTAVLEKQYDFMTATEVIEHLYHPDVVWKQWLNLVKPGGWIGLMTKMVIDVEAFKSWHYKNDPTHVVFFSRDTFQFLAERDKLELEFIGNDVILLRKTQLEHHHHHH”, the protein production entry is given as “not failed”.

For the sequence “MSLYTFKELKRATKQDTVSLPKLKVALLGDTATQLLATAIKGEGILRNYNIELWEAEYNQVERQIMDPTSDYYQFEPDYTIIFHSTHKLLEKHSLVNSDLQNKLADDRLDFVRLLCEQGIGRVIYYNYPEIEDTIWGSYATKVQSSFTYQLTKLNYELMNISQAYPNFFICNLAGISAKYGRNFMFDSSVYVNTEIILSLDALPIISSRTIDIIAAIQGKFKKCLILDLDNTIWGGVVGDDGWENIQVGHGLGIGKAFTEFQEWVKKLKNRGIIIAVCSKNNEGKAKEPFERNPEMVLKLDDIAVFVANWENKADNIRTIQRTLNIGFDSMVFLDDNPFERNMVREHVPGVTVPELPEDPGDYLEYLYTLNLFETASFSEGHHHHHH”, the protein production result is “not failed”.

“MTALPLSAVTVVSVCYNSDRLIRDLVTAIPDETPIILVDNGHTNTFADLPPHRNVIIVKLDHNLGFGRGCNAGADVAQTPWILFLNPDARLNPGAIEGLLQAAAQYPSAIAFNPRIYNEDGSPYFKRRSWLLPRQHYMKKGWPSADAVVPVLSGAALFVSKKSFDYIGGFDPSIFMYHEDDDLSLRLSALGELRFVRNSTVVHFAGYSSGRSPEIARFKAYHMAQSKIYAGQKHHRPFAKTSTLLQGCLLLLSPHVFFSARRRAKALGFLHGALAKIWSELLNAASTSSQKKTLEHHHHHH”: the protein production result is on record as “not failed”.

With “MQWQESLPWTPEARQKLKNIPYFARVQARQRIEQLARQADLDEVTVDLVEQARLEFGQ”, the protein production result is “failed”.

As to “MIKKTIGGIIPIFTAVFIPASAGAADLMLAQEYKGQDIAGWAMSEKLDGVRAYWDGKHLMSRQGYAFAPPKGFTAQFPPYPLDGELYSGRGQFEQISATVRSVSSDWRGIRLHVFDVPKAQGNLYQRLAVATQWLKTHPNAPITIIPQIKVRDRQHAMDFLKQIEAQGGEGVMLRQPESRYSGGRSSQLLKLKSQYDDECTVTRHYEGKGRNAGRLGAVGCKNRHGEFRIGSGFKDKDRDNPPKIGTLITYRYRGFTRKGTPKFATFVRVRTDR”, the protein production result is on record as “failed”.

Consider “SSQPVISAQEQETQIVLYGKLVEARQKHANKMDVPPAILATNKILVDMAKMRPTTVENVKRIDGVSEGKAAMLAPLWEVIKHFCQTNSVQTDLFSSTKPQ”, for which the protein production result is “not failed”.

With “MGSSMEEKVVAVIMVGGPTKGTRFRPLSLNIPKPLFPIAGQPMVHHPISACKRIPNLAQIYLVGFYEEREFALYVSAISNELKVPVRYLREDKPHGSAGGLYHFRNLIMEDSPSHIFLLNCDVCCSFPLPKMLEAHRGYGGIGTLLVIKVSPESASQFGELVADPVTNELLHYTEKPETFVSDRINCGVYVFTPEIFNAIGDVSTQRKDRATLKRVSSFEALQPATRIPTDFVRLDQDILSPLAGKKRLYTYETMDFWEQIKSPGMSLRCSGLYLSQFRLTSPQLLASGDGTRSAIVIGDVYIHPSAKVHPTAKIGPNVSISANARVGPGVRLMSCIILDDVEIMENAVVTNAIVGWKSSIGRWSRVQAEGVYNSKLGVTILGDSVAVEDEVVVTSSIVLPNKTLNVSVQDEIIL”, the protein production entry is on record as “failed”.

On to “MNEKTLHLDKKSAVVGGLNLSQTKIFGTPLPLFLFLLLTVLAAHFTDTLPSGLVGGFAFMFVIGAIFGEVGKRLPIFNKYIGGAPVMIFLVAAWFVHMGWLSDREIKTVTEVMDKSKFLDLFIAVLITGSILAVNRKLLIRSLAGYIPTILAAVAGAAVFGIAIGLVFGITPDRIMMLYVLPIMGGGNGAGAIPLSEIYESVTGGSKEQYYSVAIAILTIANIVAIVAAAVINIIGEKIPSLTGNGELVRSSKLDVSEEAKNLTVTHREIAIGLMLAACVYTFSYALSKEILPGFGSIQIHTFAYMVVIIAILNAAGLCSDEIKEGAKRLSNFFSKQMLWLLMVGVGIAYTDLAEIINALTFANVIIATVIVLGAIIGAALGGWAMGFYPVEASITAGLCMANRGGSGDLEVLAASNRMSLLSYAQISSRLGGGIVLVIASVVFGMFV”, for which the protein production entry is listed as “failed”.

Take “MLKQRIITALILLPIALCGFFLLEGSGFALFIGLVVSLGAWEWARLAGFEAQPARVAFAVVVAALLFLMHLVPGVAPWVLGAAVLWWALATYLVLTYPRSSEQWSGAAPKLLIGLLILLPAWQGLVFIKQLPLGNWLIMAVMVLVWGADIGAYFSGKAFGKRKLAPQVSPGKSWEGVYGGLALSLVITAVVGLVRDWTLGQMILGLLGAAIVVFISVVGDLTESMFKRQSGIKDSSNLLPGHGGVLDRIDSLTAAIPVFAVLLWMAAL”: the protein production result is given as “failed”.

On to “MRIRFSRCASPRGKSSTGVIVPVCSAIYSIRRFWRWNKMKISVVIPTFNRCHLLAEAINSALDQASSELEVEAVIVDDESDDGTAAWLETAFAGEHRVRVLVNGRGKRPAGARNTGILAARHPKVGVIFSRARYEQDETEVPYMDPNFECKLCYASIATEDKDAVVFDRSYFGHLLKYSCYFNLSAVVMTADAARQLMSESLHIAEDFKFWVRLSHEQIFACLKVPQIRYRSHSANIPFKADKDPAGNTPSMLHTYRLMLGYPGLARSNREQLRKHMAKEYFDWAYRCSRKGRLAEALRLRLALFDLLWKNVVACVKLPWIGLRYRADRVGSTEQ”, for which the protein production result is “failed”.

“MTRTEYLAELDKYLRKLPREDYHEAMEYYIEYFDEAGPDKESQVIDDLGNPKEAASEIISNVLGKHLATPEKTPKNRATIIGLTILSLFAAPIALPVLLALILFIIACLMLGLTAIFAAYIFGLAGILVAGVTLFESLTLIGSSIPAQAMGIGSALLCFGGGLLIWIIATAFLRFSGRAFVAFIKWISNKKGAQA”: the protein production entry is “failed”.

For the sequence “MSLIPKFRAWDTYEKEMLENVTPLFDDSNSMIAIITDFQIKGSPGTSEIEIGSYDTTFNWDEFPYVIMQSTGLKDKNGVEIFEGDILVYDAPKKYAHRRSMHEIAYADGRFFWEFLDLVFCQSNILYRDGYLVIGNIHENPELLEGNEGHHHHHH”, the protein production entry is reported as “not failed”.

“MHKEIAKELLLLAGGKNNIISISHCTTRLRFDVKDETKIDIHAIENLQGVQGTFFRYGLFQIIFGAGVVNKIYKEVVHVWETAPSEEPVHQKKASRKLNPAAAFAKTLSDI”: the protein production result was “failed”.

Regarding “MAAFPNLNSGSGLKKLDEHLLTRSYITGYQASKDDITVFTALSKPPTSEFVNVSRWFNHIDALLRISGVSAEGSGVIVEGSSPITEEAVATPPAADSKDTAAEEEDDDDVDLFGEETEEEKKAAEERAASVKASTKKKESGKSSVLMDIKPWDDETDMKKLEEAVRSIQMEGLFWGASKLVPVGYGIKKLHIMCTIVDDLVSIDTMIEEQLTVEPINEYVQSCDIVAFNKI”, the protein production result was “failed”.
